From the supplement of paper PMC7125110
± gives the standard error. Fewer inactive variants are shown than the library holds.

B1: glmS ribozyme (parent)
chain: AUAAAAGCGCCAGAACUACAGAAAUGUAGUUGACGAGGAGGAGGUUUAUCGAAUUUUCGGCGGAUGCCUCCAAA

Experiments:
Details in all cases: with glucosamine-6-phosphate
glucosamine-6-phosphate [1] = variants of: B1; experiment: self-cleavage kobs at 160 uM GlcN6P; higher = faster cleavage; RNA array
How it was run: (§1)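 Glucosamine-6-phosphate (40 μM to 10 mM) in HEPES/KCl/Mg(OAc)2 buffer was flowed over sequenced MiSeq chips, and tiles were imaged over ~14 h. Barcoded ribozyme variants there had been transcribed in situ by E. coli RNA polymerase and were tracked through a hybridised Cy3 probe at 37 °C. One- or two-exponential decay fits to per-tile medians, normalised to baseline and to non-cleaving reference variants, gave kobs. kcat and KM came from weighted Michaelis–Menten fits across concentrations.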

glucosamine-6-phosphate [2] = variants of: B1; experiment: self-cleavage kobs at 640 uM GlcN6P; higher = faster cleavage; RNA array
How it was run: as §1

glucosamine-6-phosphate [3] = variants of: B1; experiment: self-cleavage kobs at 2500 uM GlcN6P; higher = faster cleavage; RNA array
How it was run: as §1

glucosamine-6-phosphate [4] = variants of: B1; experiment: self-cleavage kobs at 10000 uM GlcN6P; higher = faster cleavage; RNA array
How it was run: as §1

Variant	self-cleavage kobs at 160 uM GlcN6P (glucosamine-6-phosphate [1]) [s⁻¹]	self-cleavage kobs at 640 uM GlcN6P (glucosamine-6-phosphate [2]) [s⁻¹]	self-cleavage kobs at 2500 uM GlcN6P (glucosamine-6-phosphate [3]) [s⁻¹]	self-cleavage kobs at 10000 uM GlcN6P (glucosamine-6-phosphate [4]) [s⁻¹]
C11U U65C	< 1e-05			
G9C C11A C16U G35C U54C G62A	< 1e-05	< 1e-05		
C8A A15U A36C A52G	< 1e-05			
C10U G44U C61A	< 1e-05	< 1e-05	< 1e-05	
G7C G32C G43U G60U	< 1e-05		< 1e-05	< 1e-05
C10U A39U G59A C70U	< 1e-05		< 1e-05	
G7U G13U A15C	< 1e-05	< 1e-05	< 1e-05	
C10U G29U U57C C67U U69G	6.16e-05 ± 1.7e-05	8.17e-05 ± 1.9e-05	6.3e-05 ± 2e-05	
C10U U30C G43U G51U U55C U69C	< 1e-05	< 1e-05	< 1e-05	< 1e-05
C8U C71G	< 1e-05	< 1e-05	< 1e-05	
C10U A12U G40U A48G G60A	7.46e-05 ± 2.7e-05			
C8A G9U G32A G51A	< 1e-05			
C8U G40U	< 1e-05		< 1e-05	< 1e-05
G9U C58U	< 1e-05	< 1e-05	< 1e-05	
A12C A39U U46A C50G	< 1e-05	< 1e-05	< 1e-05	
C8A C16A U47C C58G	< 1e-05	< 1e-05		
C10U G60U C70G	< 1e-05	< 1e-05		
C8A A36U C50G A52U	< 1e-05	< 1e-05	< 1e-05	
G7U U46A C50G G60A U65G U69A	0.000502 ± 0.00021			
G9A C34A	< 1e-05	< 1e-05	< 1e-05	< 1e-05
C8A G60U U69A	< 1e-05	< 1e-05		
C8A G35C C61G	< 1e-05	< 1e-05	< 1e-05	
G9C G44U	< 1e-05	< 1e-05	< 1e-05	< 1e-05
C10G G35U	< 1e-05	< 1e-05	< 1e-05	
C10G G35C	< 1e-05	< 1e-05		< 1e-05
